# How the values were obtained:
# HLA-B*58:01 = assay: IEDB peptide-MHC binding, purified MHC/direct/fluorescence; filed as Kd, often an IC50 or EC50 that approximates it; ≥ and ≤ were set here for values at or beyond the usual limits of such assays
# HLA-B*46:01 = assay: as above; conditions: source organism: Mycobacterium tuberculosis
# HLA-B*44:02 = assay: as above
# HLA-B*39:01 [1] = assay: as above
# HLA-B*57:01 = assay: as above
# HLA-A*11:01 = assay: as above; conditions: source organism: Mycobacterium tuberculosis
# HLA-A*31:01 = assay: as above
# HLA-B*07:02 = assay: as above
# HLA-A*01:01 [2] = assay: as above
# HLA-B*15:01 [3] = assay: as above; conditions: source organism: Mycobacterium tuberculosis
# HLA-A*03:01 = assay: as above
# HLA-B*27:05 = assay: as above
# HLA-A*01:01 [4] = assay: IEDB peptide-MHC binding, purified MHC/competitive/fluorescence; ≥ and ≤ were set here for values at or beyond the usual limits of such assays
# HLA-B*15:01 [5] = assay: as above
# HLA-B*53:01 = assay: IEDB peptide-MHC binding, purified MHC/competitive/radioactivity; filed as Kd, often an IC50 or EC50 that approximates it; ≥ and ≤ were set here for values at or beyond the usual limits of such assays; conditions: source organism: Dengue virus 3 Martinique/1243/1999
# HLA-B*51:01 = assay: IEDB peptide-MHC binding, purified MHC/direct/fluorescence; filed as Kd, often an IC50 or EC50 that approximates it; ≥ and ≤ were set here for values at or beyond the usual limits of such assays
# HLA-A*32:01 = assay: IEDB peptide-MHC binding, purified MHC/competitive/radioactivity; filed as Kd, often an IC50 or EC50 that approximates it; ≥ and ≤ were set here for values at or beyond the usual limits of such assays; conditions: source organism: Vaccinia virus WR
# HLA-A*24:02 = assay: IEDB peptide-MHC binding, purified MHC/competitive/fluorescence; ≥ and ≤ were set here for values at or beyond the usual limits of such assays
# HLA-A*02:01 [6] = assay: as above
# HLA-B*39:01 [7] = assay: IEDB peptide-MHC binding, purified MHC/competitive/fluorescence; filed as Kd, often an IC50 or EC50 that approximates it; ≥ and ≤ were set here for values at or beyond the usual limits of such assays; conditions: source organism: Mycobacterium tuberculosis variant bovis BCG str. Pasteur 1173P2
# HLA-B*83:01 = assay: as above; conditions: source organism: Mycobacterium tuberculosis variant bovis BCG str. Pasteur 1173P2
# HLA-B*15:42 = assay: as above; conditions: source organism: Mycobacterium tuberculosis variant bovis BCG str. Pasteur 1173P2
# HLA-A*01:01 [8] = assay: as above; conditions: source organism: Mycobacterium tuberculosis variant bovis BCG str. Pasteur 1173P2
# HLA-B*15:01 [9] = assay: as above; conditions: source organism: Mycobacterium tuberculosis variant bovis BCG str. Pasteur 1173P2
# HLA-B*45:06 = assay: as above; conditions: source organism: Mycobacterium tuberculosis variant bovis BCG str. Pasteur 1173P2
# HLA-B*48:01 = assay: IEDB peptide-MHC binding, purified MHC/direct/fluorescence; filed as Kd, often an IC50 or EC50 that approximates it; ≥ and ≤ were set here for values at or beyond the usual limits of such assays; conditions: source organism: Mycobacterium tuberculosis
# HLA-B*18:01 = assay: as above; conditions: source organism: Mycobacterium tuberculosis
# HLA-B*40:01 = assay: as above; conditions: source organism: Mycobacterium tuberculosis
# HLA-B*15:09 = assay: as above; conditions: source organism: Mycobacterium tuberculosis str. Haarlem
# HLA-B*15:17 = assay: as above; conditions: source organism: Mycobacterium tuberculosis
# HLA-A*02:01 [10] = assay: as above; conditions: source organism: Mycobacterium tuberculosis
# HLA-A*26:01 = assay: as above; conditions: source organism: Mycobacterium tuberculosis str. Haarlem
# HLA-A*69:01 = assay: as above; conditions: source organism: Mycobacterium tuberculosis
# [11] = source organism: Mycobacterium tuberculosis
# [12] = source organism: Zaire ebolavirus
# [13] = source organism: Vaccinia virus WR
# [14] = source organism: Mammarenavirus lassaense
sequence,measurement,setting,value
FHVNPAFVL,Kd,HLA-B*58:01; [11],≥ 20 µM
same,Kd,HLA-B*46:01,≥ 20 µM
same,Kd,HLA-B*44:02; [11],≥ 20 µM
same,Kd,HLA-B*39:01 [1]; [11],0.014 µM
same,Kd,HLA-B*57:01; [11],≥ 20 µM
same,Kd,HLA-A*11:01,≥ 20 µM
same,Kd,HLA-A*31:01; [11],≥ 20 µM
same,Kd,HLA-B*07:02; [11],≥ 20 µM
same,Kd,HLA-A*01:01 [2]; [11],≥ 20 µM
same,Kd,HLA-B*15:01 [3],≥ 20 µM
same,Kd,HLA-A*03:01; [11],≥ 20 µM
same,Kd,HLA-B*27:05; [11],≥ 20 µM
FSTSDGKEY,IC50,HLA-A*01:01 [4]; [12],14.3 µM
same,IC50,HLA-B*15:01 [5]; [12],11.6 µM
HKDGAFFLY,IC50,HLA-A*01:01 [4]; source organism: Sudan ebolavirus,6.35 µM
HPGFTILAL,Kd,HLA-B*53:01,0.0003 µM
same,Kd,HLA-B*51:01; source organism: dengue virus type 3,≥ 20 µM
KMDNGTLEF,Kd,HLA-A*32:01,0.000923 µM
same,IC50,HLA-A*24:02; [13],1.06 µM
same,IC50,HLA-A*02:01 [6]; [13],6.36 µM
same,IC50,HLA-A*01:01 [4]; [13],15 µM
same,IC50,HLA-B*15:01 [5]; [13],24.4 µM
MRMGDLHLL,Kd,HLA-B*39:01 [1]; source organism: Influenza A virus (A/swine/Italy/1850/1977(H3N2)),0.0396 µM
NQFGTMPSL,Kd,HLA-B*58:01; [14],≥ 20 µM
same,Kd,HLA-B*44:02; [14],≥ 20 µM
same,Kd,HLA-B*39:01 [1]; [14],0.0011 µM
same,Kd,HLA-B*57:01; [14],≥ 20 µM
same,Kd,HLA-A*31:01; [14],≥ 20 µM
same,Kd,HLA-B*07:02; [14],≥ 20 µM
same,Kd,HLA-A*01:01 [2]; [14],≥ 20 µM
same,Kd,HLA-A*03:01; [14],≥ 20 µM
same,Kd,HLA-B*27:05; [14],≥ 20 µM
RPRCAYLPF,Kd,HLA-B*39:01 [7],≥ 20 µM
same,Kd,HLA-B*83:01,0.0317 µM
same,Kd,HLA-B*15:42,≥ 5 µM
same,Kd,HLA-A*01:01 [8],≥ 20 µM
same,Kd,HLA-B*15:01 [9],2.17 µM
same,Kd,HLA-B*45:06,≥ 5 µM
same,Kd,HLA-B*48:01,≥ 20 µM
same,Kd,HLA-B*58:01; [11],≥ 20 µM
same,Kd,HLA-B*46:01,5.59 µM
same,Kd,HLA-B*51:01; [11],≥ 20 µM
same,Kd,HLA-B*57:01; [11],≥ 20 µM
same,Kd,HLA-A*11:01,≥ 20 µM
same,Kd,HLA-B*18:01,5.59 µM
same,Kd,HLA-A*31:01; [11],≥ 20 µM
same,Kd,HLA-B*40:01,≥ 20 µM
same,Kd,HLA-B*15:09,≥ 20 µM
same,Kd,HLA-B*15:17,0.197 µM
same,Kd,HLA-A*02:01 [10],≥ 20 µM
same,Kd,HLA-A*26:01,2.6 µM
same,Kd,HLA-A*03:01; [11],≥ 20 µM
same,Kd,HLA-A*69:01,≥ 20 µM
same,Kd,HLA-B*27:05; [11],≥ 20 µM
SPGRKNGSF,Kd,HLA-B*51:01; source organism: Yellow fever virus 1899/81,≥ 20 µM
TLDGQQFYW,IC50,HLA-A*24:02; [12],0.182 µM
same,IC50,HLA-A*02:01 [6]; [12],2.22 µM
same,IC50,HLA-A*01:01 [4]; [12],35.3 µM
